Data on one molecule can be found in publication PMC5688200, “Overexpression of the transcription factor NF-YC9 confers abscisic acid hypersensitivity in Arabidopsis”.

The target in data set [1] is T1, ABI5-6His (Arabidopsis thaliana, UniProt Q9SJN0 1-442).
T1 sequence: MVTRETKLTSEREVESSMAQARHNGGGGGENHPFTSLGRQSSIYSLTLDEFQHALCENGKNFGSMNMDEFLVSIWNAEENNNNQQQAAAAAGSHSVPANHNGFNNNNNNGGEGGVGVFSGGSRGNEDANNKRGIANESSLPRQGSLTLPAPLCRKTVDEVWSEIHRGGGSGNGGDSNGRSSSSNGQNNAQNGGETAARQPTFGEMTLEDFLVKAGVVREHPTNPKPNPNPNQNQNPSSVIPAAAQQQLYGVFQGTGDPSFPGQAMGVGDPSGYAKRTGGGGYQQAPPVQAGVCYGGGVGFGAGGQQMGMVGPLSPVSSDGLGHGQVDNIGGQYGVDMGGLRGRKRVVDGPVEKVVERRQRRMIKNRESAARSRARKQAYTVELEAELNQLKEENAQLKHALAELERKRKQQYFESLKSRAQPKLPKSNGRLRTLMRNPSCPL
Kind of data set: EMSA; 5 mM MgCl2, poly(dI-dC); ABI5 alone, 1 ug; 25 mM HEPES pH 8.0, 40 mM KCl, 5 mM MgCl2, 1 mM DTT, 1 mM EDTA, 8% glycerol, 1 ug/uL poly(dI-dC), 20 fmol probe, 30 min room temperature, 5% native PAGE. The note with it: protein: recombinant; tags: C-terminal 6His (codons in reverse primer); chain copies: 2; label: 5' biotin; blunt. For orientation: A gel shift assay detects complexes by their altered migration in electrophoresis.

Data set [2] addresses T2, NF-YC9-6His (Arabidopsis thaliana, UniProt Q8L4B2 1-231).
T2 sequence: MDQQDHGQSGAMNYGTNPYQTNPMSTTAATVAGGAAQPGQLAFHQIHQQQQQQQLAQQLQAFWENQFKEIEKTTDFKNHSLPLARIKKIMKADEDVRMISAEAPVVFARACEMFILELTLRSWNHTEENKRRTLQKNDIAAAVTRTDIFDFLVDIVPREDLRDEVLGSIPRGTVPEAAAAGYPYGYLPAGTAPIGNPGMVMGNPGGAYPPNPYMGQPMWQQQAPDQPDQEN
Kind of data set: EMSA; 5 mM MgCl2, poly(dI-dC); NF-YC9 alone; 25 mM HEPES pH 8.0, 40 mM KCl, 5 mM MgCl2, 1 mM DTT, 1 mM EDTA, 8% glycerol, 1 ug/uL poly(dI-dC), 20 fmol probe, 30 min room temperature, 5% native PAGE. The note with it: protein: recombinant; tags: C-terminal 6His (codons in reverse primer); label: 5' biotin; blunt.

B1: EM6 promoter probe (-277 to -220, contains pEm6.2) (dsDNA)
DNA 1: ACCACGTTCAAAGTATACGTCAGCTAATAAAGTCAGACACGTGGCATGTCACCAAGAA
DNA 2: TTCTTGGTGACATGCCACGTGTCTGACTTTATTAGCTGACGTATACTTTGAACGTGGT
For B1, the figures for the binding result in data set [1] and in data set [2] were “binds” and “no binding”, respectively.
